Reference: patent US5786328, “Use of kunitz type plasma kallikrein inhibitors” (Genentech, Inc., dated 1998)
Where no end group is shown, it is not given here.

Experiments:
Experiment in all cases: cell-based or functional assay
Human Factor XIIa = molecular target: T1, Human Factor XIIa (human, UniProt P00748)
T1 sequence 1: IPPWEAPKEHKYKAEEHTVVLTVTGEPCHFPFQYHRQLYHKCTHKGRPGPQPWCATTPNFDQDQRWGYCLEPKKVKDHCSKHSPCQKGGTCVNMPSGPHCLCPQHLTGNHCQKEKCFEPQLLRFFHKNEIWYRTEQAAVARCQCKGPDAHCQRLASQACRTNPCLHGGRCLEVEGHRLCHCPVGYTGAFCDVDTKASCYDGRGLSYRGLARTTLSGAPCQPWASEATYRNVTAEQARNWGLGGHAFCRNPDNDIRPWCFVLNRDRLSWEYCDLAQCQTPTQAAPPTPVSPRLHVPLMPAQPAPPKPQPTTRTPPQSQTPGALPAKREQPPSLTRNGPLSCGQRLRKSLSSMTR
T1 sequence 2: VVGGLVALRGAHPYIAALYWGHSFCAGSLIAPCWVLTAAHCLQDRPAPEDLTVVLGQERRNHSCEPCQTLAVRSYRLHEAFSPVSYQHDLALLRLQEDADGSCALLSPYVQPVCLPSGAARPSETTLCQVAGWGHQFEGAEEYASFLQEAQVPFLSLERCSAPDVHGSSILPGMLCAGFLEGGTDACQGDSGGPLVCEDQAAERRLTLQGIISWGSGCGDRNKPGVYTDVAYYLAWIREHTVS

Human Factor Xa = Human Factor Xa (human, UniProt P00742)
Human thrombin = Human thrombin (human, UniProt P00734)
Human plasmin = Human plasmin (human, UniProt P00747)
[1] = molecular target: Human activated protein C (human, UniProt P04070)

B1: APPI (Alzheimer's amyloid β-protein precursor inhibitor) (other)
chain: VREVCSEQAETGPCRAMISRWYFDVTEGKCAPFFYGGCGGNRNNFDTEEYCMAVCGSA
modifications: not fully specified (bridges); ends and bridges not checked
- fraction of remaining proteolytic activity with 100 nM inhibitor (Human Factor XIIa): 0.97 fraction of uninhibited rate
- fraction of remaining proteolytic activity with 100 nM inhibitor (Human Factor Xa): 0.89 fraction of uninhibited rate
- fraction of remaining proteolytic activity with 100 nM inhibitor (Human thrombin): 0.92 fraction of uninhibited rate
- fraction of remaining proteolytic activity with 100 nM inhibitor (Human plasmin): 0.62 fraction of uninhibited rate
- fraction of remaining proteolytic activity with 100 nM inhibitor [1]: 0.87 fraction of uninhibited rate
